Series [1] addresses T1, KSRP KH3 (Homo sapiens, UniProt Q92945 322-386).
T1 sequence: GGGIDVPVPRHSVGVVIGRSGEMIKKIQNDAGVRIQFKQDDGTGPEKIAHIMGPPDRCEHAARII
Put plainly: NMR titration.

The target in series [2] is T1, KSRP KH3. Put plainly: NMR structure, NMR titration, ITC.
The target in series [3] is T2, KSRP KH1-KH4 (referred to as KSRP) (Homo sapiens, UniProt Q92945 68-525).
T2 sequence: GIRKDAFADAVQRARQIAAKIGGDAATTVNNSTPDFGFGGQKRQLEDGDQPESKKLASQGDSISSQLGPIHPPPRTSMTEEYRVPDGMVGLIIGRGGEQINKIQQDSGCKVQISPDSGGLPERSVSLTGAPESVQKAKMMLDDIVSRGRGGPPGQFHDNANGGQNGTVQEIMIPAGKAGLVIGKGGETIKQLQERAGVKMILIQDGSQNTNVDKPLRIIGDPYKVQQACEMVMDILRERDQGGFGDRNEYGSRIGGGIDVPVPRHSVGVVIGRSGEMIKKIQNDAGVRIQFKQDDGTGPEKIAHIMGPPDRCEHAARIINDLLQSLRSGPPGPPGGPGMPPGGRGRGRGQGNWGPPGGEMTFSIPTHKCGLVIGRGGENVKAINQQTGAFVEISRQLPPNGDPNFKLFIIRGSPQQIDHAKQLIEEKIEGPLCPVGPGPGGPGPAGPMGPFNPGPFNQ
In words: NMR 13C-1H.

The values below come from publication PMC3605776.

For the molecule AGAGU (ssRNA) [AGGGU G3A], in series [1], the binding result is “binds”. Take AGGGU (ssRNA): the binding result in series [2] and in series [3] was “binds” in each case.

As to AGUGU (ssRNA) [AGGGU G3U], the binding result in series [1] is recorded as “binds”.
